Biological target: apolipoprotein E on the surface of very low-density lipoproteins (human) (UniProt P02649)
Test: AFM-based force spectroscopy; DENV C covalently attached to the AFM tip; VLDL adsorbed on freshly cleaved mica; TEE-KCl buffer pH 7.4 (20 mM Tris-HCl, 100 mM KCl, 1 mM EDTA, 1 mM EGTA); loading rate 4 nN/s; with or without rabbit anti-human APOE antibody (1 or 100 ug/L) or an isotype-matched control antibody

UniProt P02649, sequence (P02649 19-317): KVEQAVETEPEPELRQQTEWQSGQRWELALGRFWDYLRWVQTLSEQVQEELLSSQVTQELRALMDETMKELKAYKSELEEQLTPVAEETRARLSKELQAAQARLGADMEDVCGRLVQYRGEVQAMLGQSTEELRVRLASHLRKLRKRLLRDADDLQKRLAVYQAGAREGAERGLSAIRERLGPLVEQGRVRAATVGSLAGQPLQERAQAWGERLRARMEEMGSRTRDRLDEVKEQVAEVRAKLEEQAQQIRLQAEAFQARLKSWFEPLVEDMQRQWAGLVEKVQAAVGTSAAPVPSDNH

Substance: Dengue virus capsid (C) protein (natural protein)
- rupture force, 1st Gaussian peak (DENV C-VLDL, no antibody): 29.7 pN
- rupture force, 2nd Gaussian peak (DENV C-VLDL, no antibody): 52.1 pN
